Substrate in data set [1]: Cc1ccccc1C1=C2C=CC(=N)C=C2[Si](C)(C)c2cc(NC(=O)[C@H](CC(=O)O)NC(=O)[C@@H](NC(=O)[C@H](CCC(=O)O)NC(=O)[C@H](CC(=O)O)NC(=O)OCc3ccccc3)C(C)C)ccc21
The data set can be described thus: Activity of caspase3 after 10 hrs by FRET assay.

Substrate in data set [2]: Cc1ccccc1C1=C2C=CC(=N)C=C2[Si](C)(C)c2cc(NC(=O)[C@H](CC(=O)O)NC(=O)[C@@H](NC(=O)[C@H](CCC(=O)O)NC(=O)[C@H](CC(=O)O)NC(=O)OCc3ccccc3)C(C)C)ccc21
The data set is described as follows: Ratio of Kcat to Km for caspase3 by FRET assay.

The term Km denotes the concentration of substrate that gives half-maximal velocity.

B1: Caspase-3 (Homo sapiens), P42574 (protein)
chain: MENTENSVDSKSIKNLEPKIIHGSESMDSGISLDNSYKMDYPEMGLCIIINNKNFHKSTGMTSRSGTDVDAANLRETFRNLKYEVRNKNDLTREEIVELMRDVSKEDHSKRSSFVCVLLSHGEEGIIFGTNGPVDLKKITNFFRGDRCRSLTGKPKLFIIQACRGTELDCGIETDSGVDDDMACHKIPVEADFLYAYSTAPGYYSWRNSKDGSWFIQSLCAMLKQYADKLEFMHILTRVNRKVATEFESFSFDATFHAKKQIPCIVSMLTKELYFYH
On to B1, for which, in data set [1], the Km was 1.2 µM and the Vmax stood at 6.8 ×10⁻⁸ M/s. In addition, the kcat/Km in data set [2] came out at 3.1 ×10⁶ /M/s.

Source of the values: ChEMBL document CHEMBL2029331, “Red fluorescent scaffold for highly sensitive protease activity probes” (Bioorg Med Chem Lett, 2012).
